Earlier results, collected in publication PMC5883021.

Molecular target: F-actin (Oryctolagus cuniculus) (UniProt P68135)

- Kd: 7.39 µM
Substance: TAGLN2 (from UniProt P37802)
